Reference: patent publication US20240066137A1, “NOVEL PROTEIN CONJUGATE, AND USE THEREOF FOR PREVENTING OR TREATING NONALCOHOLIC STEATOHEPATITIS, OBESITY AND DIABETES” (ONEGENE BIOTECHNOLOGY INC., priority 2020, published 2024)
One block for each substance: values may come before it.

Tests used:
Assay in all cases: cell-based or functional assay
[1] = biological target: GLP-1 acceptor (UniProt P43220)
[2] = biological target: GIP acceptor (UniProt P48546)
[3] = biological target: FGFR1/KLB acceptor (UniProt P11362)
Chain of FGFR1/KLB acceptor (P11362 22-822 limits assumed, chain 1 of 2): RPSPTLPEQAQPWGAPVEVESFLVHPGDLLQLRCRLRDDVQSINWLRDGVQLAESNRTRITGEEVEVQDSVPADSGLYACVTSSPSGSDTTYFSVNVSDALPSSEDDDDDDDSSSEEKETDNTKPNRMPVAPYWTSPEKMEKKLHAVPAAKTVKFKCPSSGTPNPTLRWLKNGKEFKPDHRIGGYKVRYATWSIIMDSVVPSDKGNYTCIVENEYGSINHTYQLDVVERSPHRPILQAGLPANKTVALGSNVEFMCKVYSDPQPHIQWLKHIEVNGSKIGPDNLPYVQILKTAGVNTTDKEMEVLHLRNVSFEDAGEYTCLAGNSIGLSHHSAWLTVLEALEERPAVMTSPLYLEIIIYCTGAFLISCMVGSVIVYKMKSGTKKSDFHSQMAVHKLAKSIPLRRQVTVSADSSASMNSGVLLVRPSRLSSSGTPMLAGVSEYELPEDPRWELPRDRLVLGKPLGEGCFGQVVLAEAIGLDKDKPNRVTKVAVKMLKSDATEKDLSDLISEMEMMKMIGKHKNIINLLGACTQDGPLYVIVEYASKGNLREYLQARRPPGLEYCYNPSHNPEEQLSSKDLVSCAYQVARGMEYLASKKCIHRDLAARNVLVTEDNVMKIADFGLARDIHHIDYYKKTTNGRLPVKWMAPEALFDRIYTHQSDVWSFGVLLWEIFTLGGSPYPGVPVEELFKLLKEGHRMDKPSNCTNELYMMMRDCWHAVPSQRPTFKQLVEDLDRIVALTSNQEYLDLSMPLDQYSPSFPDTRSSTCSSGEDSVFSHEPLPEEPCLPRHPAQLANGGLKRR
Chain of FGFR1/KLB acceptor (Q86Z14 whole entry, chain 2 of 2, further chain): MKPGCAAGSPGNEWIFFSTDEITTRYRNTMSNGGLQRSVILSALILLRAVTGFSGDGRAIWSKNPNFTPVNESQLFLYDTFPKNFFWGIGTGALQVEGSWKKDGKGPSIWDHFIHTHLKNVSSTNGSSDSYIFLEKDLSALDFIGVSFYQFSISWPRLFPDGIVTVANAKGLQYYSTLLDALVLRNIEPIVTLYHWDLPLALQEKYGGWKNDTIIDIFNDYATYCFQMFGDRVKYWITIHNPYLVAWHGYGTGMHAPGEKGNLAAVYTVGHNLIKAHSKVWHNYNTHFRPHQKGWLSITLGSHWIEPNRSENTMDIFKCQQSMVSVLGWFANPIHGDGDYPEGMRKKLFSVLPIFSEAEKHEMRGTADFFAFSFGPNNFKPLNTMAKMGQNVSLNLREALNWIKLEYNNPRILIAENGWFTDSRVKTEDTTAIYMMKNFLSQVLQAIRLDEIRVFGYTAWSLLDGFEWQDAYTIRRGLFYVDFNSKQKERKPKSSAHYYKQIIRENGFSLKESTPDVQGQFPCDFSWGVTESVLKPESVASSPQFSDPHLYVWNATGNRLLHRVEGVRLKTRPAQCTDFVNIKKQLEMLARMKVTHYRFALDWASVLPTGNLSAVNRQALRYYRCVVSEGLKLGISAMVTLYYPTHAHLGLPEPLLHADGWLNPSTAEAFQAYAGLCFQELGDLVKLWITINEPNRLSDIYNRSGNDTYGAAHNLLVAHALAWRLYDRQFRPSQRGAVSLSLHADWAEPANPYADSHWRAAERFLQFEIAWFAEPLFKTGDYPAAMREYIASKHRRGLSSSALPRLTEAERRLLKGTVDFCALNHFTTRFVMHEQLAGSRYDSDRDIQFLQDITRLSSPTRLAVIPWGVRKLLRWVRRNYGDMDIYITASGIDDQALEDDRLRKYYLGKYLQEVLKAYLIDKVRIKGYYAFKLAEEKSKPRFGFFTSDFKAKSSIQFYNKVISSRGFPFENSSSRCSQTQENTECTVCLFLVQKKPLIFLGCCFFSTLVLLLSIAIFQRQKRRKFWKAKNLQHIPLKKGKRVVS

[4] = biological target: IL-1RA acceptor (UniProt P14778)
Chain of IL-1RA acceptor (P14778 18-569 limits assumed): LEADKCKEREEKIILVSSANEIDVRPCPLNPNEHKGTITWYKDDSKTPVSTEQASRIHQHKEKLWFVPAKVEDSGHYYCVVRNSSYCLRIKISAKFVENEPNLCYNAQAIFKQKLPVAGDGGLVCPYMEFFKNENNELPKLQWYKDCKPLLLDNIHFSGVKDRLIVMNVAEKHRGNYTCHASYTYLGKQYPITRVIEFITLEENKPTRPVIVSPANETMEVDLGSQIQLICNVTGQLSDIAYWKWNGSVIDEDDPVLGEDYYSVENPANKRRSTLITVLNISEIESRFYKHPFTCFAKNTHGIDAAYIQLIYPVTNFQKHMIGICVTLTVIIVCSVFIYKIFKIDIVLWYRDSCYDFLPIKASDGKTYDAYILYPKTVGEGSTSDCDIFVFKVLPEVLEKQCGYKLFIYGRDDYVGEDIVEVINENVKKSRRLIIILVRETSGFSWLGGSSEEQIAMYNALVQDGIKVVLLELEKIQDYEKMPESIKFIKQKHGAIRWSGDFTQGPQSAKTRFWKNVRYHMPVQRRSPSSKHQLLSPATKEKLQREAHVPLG

Chain of Dulaglutide (Fc fusion) (chain): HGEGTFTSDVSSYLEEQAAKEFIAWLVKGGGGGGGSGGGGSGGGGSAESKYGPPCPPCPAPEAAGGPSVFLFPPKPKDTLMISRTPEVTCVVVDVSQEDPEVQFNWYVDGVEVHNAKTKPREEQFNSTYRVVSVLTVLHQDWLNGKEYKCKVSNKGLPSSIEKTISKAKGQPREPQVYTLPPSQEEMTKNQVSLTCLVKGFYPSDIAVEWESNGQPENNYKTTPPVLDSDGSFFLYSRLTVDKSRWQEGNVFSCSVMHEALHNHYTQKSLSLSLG
Chain of rhFGF21 (Native) (Q9NSA1 29-209 limits assumed): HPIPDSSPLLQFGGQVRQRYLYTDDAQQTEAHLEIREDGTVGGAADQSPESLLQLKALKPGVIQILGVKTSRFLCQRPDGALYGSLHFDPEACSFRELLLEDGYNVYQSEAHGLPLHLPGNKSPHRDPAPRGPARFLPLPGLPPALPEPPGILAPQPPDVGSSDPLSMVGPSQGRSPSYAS
Chain of GIP acceptor (P48546 22-466 limits assumed): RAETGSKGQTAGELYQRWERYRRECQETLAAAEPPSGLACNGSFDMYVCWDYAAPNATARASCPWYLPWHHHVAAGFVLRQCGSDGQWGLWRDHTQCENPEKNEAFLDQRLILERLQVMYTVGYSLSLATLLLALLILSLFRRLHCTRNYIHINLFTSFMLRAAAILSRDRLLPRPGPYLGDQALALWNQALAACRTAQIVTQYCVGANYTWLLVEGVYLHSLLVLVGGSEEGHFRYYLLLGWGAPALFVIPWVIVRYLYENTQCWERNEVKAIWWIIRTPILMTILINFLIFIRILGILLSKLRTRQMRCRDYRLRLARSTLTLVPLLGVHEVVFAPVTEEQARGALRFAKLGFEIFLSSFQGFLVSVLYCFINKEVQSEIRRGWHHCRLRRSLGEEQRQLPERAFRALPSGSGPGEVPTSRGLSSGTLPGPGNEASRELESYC
Chain of GLP-1 acceptor (P43220 24-463 limits assumed): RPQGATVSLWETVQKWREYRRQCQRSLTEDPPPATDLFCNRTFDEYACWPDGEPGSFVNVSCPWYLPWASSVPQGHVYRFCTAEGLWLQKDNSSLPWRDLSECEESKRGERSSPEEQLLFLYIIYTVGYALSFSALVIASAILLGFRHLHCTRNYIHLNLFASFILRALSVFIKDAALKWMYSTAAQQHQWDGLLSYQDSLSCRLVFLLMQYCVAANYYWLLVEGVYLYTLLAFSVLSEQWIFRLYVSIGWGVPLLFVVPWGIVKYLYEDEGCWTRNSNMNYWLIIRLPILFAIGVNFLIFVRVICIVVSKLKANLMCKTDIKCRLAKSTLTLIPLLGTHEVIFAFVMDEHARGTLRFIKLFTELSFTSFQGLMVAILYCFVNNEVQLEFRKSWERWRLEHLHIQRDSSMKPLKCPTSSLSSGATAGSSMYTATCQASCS

EC50, cAMP accumulation assay; Mean [1]: 1.07 pM | EC50, cAMP accumulation assay; Stable cell line, n = 6 [1]: 1.45 pM | EC50, cAMP accumulation assay; run 1 [1]: 1.23 pM | EC50, cAMP accumulation assay; run 2 [1]: 0.9 pM
Substance: Dulaglutide (Fc fusion)

EC50, cAMP accumulation assay; Mean [2]: 14.8 pM | EC50, cAMP accumulation assay; run 1 [2]: 15.4 pM | EC50, cAMP accumulation assay; run 2 [2]: 14.1 pM
Substance: GIP(1-39) (from UniProt P09681 52-90) (peptide)

EC50, FGFR1/KLB functional assay; Mean [3]: 0.82 nM | EC50, FGFR1/KLB functional assay; n = 4 [3]: 1.17 nM | EC50, FGFR1/KLB functional assay; run 1 [3]: 0.75 nM | EC50, FGFR1/KLB functional assay; run 2 [3]: 0.88 nM
Substance: rhFGF21 (Native) (from UniProt Q9NSA1 29-209) (ligand)

IC50, NF-κB reporter gene luciferase assay with IL-1β; Mean [4]: 47.5 pM | IC50, NF-κB reporter gene luciferase assay with IL-1β; n = 2 [4]: 68.6 pM | IC50, NF-κB reporter gene luciferase assay with IL-1β; run 1 [4]: 39.9 pM | IC50, NF-κB reporter gene luciferase assay with IL-1β; run 2 [4]: 51.5 pM | IC50, NF-κB reporter gene luciferase assay with IL-1β; run 3 [4]: 46.6 pM | IC50, NF-κB reporter gene luciferase assay with IL-1β; run 4 [4]: 51.9 pM
Substance: rhIL-1RA (Native) (from UniProt P18510 26-177) (ligand)
